Results: the Human Domainome abundance scans (Beltran et al. 2025)
± gives the uncertainty stated by the source.

B1: Peroxisome proliferator-activated receptor delta, residues 71 to 145; numbered along this chain, Q03181 (parent)
chain: NMECRVCGDKASGFHYGVHACEGCKGFFRRTIRMKLEYEKCERSCKIQKKNRNKCQYCRFQKCLALGMSHNAIRF
B2: Arginine-glutamic acid dipeptide repeats protein, residues 502 to 543; numbered along this chain, Q9P2R6 (parent)
chain: LKGYACRHCFTTTSKDWHHGGRENILLCTDCRIHFKKYGELP

Variants of: B1
Test: abundance fitness (aPCA) (normalised: wild type 0, dead -1); higher = more abundant; growth selection in yeast, the domain comes from the species named
Settings: Homo sapiens
F28N showed an abundance fitness of -0.586 ± 0.16.
N51P showed an abundance fitness of -0.307 ± 0.099.
For R52S, the abundance fitness was -0.022 ± 0.04.
With R29K the abundance fitness was 0.026 ± 0.06.
In the case of F27K, the abundance fitness is reported as -0.772 ± 0.17.
G13M gave an abundance fitness of -0.431 ± 0.079.
Work on F75V yielded an abundance fitness of 0.015 ± 0.062.
K62S gave an abundance fitness of -0.645 ± 0.092.
For Y16H, the abundance fitness was -0.13 ± 0.071.
H19I gave an abundance fitness of 0.009 ± 0.073.
In the case of L36T, the abundance fitness is reported as -0.139 ± 0.053.
With H19T the abundance fitness was 0.041 ± 0.042.
With E39M the abundance fitness was -0.167 ± 0.057.
With G13I the abundance fitness was -0.324 ± 0.13.
K50M gave an abundance fitness of 0.034 ± 0.054.
Y16M showed an abundance fitness of -0.171 ± 0.057.
G67Y showed an abundance fitness of -0.854 ± 0.23.
R59M showed an abundance fitness of -0.023 ± 0.053.
In the case of F14W, the abundance fitness is reported as -0.118 ± 0.052.
Work on S44K yielded an abundance fitness of 0.12 ± 0.051.
Y16G gave an abundance fitness of -0.013 ± 0.044.
In the case of I73R, the abundance fitness is reported as -0.117 ± 0.036.
In the case of K10D, the abundance fitness is reported as -0.01 ± 0.059.
With N53D the abundance fitness was -0.08 ± 0.067.
M68I showed an abundance fitness of -0.703 ± 0.15.
Work on D9C yielded an abundance fitness of -0.305 ± 0.075.
With R29Y the abundance fitness was -0.089 ± 0.086.
H19K gave an abundance fitness of -0.047 ± 0.056.
D9E showed an abundance fitness of -0.154 ± 0.044.
For A72L, the abundance fitness was -0.144 ± 0.041.
For E22Y, the abundance fitness was -0.389 ± 0.099.
E42T gave an abundance fitness of -0.117 ± 0.042.
Variant S69M has an abundance fitness of 0.029 ± 0.054.
G67Q showed an abundance fitness of -0.604 ± 0.16.
In the case of E42M, the abundance fitness is reported as -0.051 ± 0.054.
Variant S69Q has an abundance fitness of 0.088 ± 0.058.
Variant E37P has an abundance fitness of -0.559 ± 0.086.
F75Q showed an abundance fitness of 0.301 ± 0.093.
With K25H the abundance fitness was -0.19 ± 0.089.
For S69K, the abundance fitness was 0.023 ± 0.051.
K40T gave an abundance fitness of -0.154 ± 0.048.
With M68V the abundance fitness was -0.652 ± 0.074.
Variant A20L has an abundance fitness of -0.106 ± 0.051.
F28Q gave an abundance fitness of -0.808 ± 0.14.
E22T gave an abundance fitness of -0.282 ± 0.056.
Work on F28C yielded an abundance fitness of -0.882 ± 0.28.
With C63Q the abundance fitness was -0.698 ± 0.11.
K50S showed an abundance fitness of -0.046 ± 0.048.
For N1Q, the abundance fitness was -0.218 ± 0.12.
Variant V6F has an abundance fitness of -0.547 ± 0.14.
Variant G8K has an abundance fitness of -0.563 ± 0.1.
With A20P the abundance fitness was -0.792 ± 0.15.
Work on C41R yielded an abundance fitness of -0.694 ± 0.099.
G8Q gave an abundance fitness of -0.253 ± 0.064.
For M2E, the abundance fitness was -0.227 ± 0.063.
In the case of G67F, the abundance fitness is reported as -0.459 ± 0.14.
In the case of H15K, the abundance fitness is reported as -0.61 ± 0.11.
R59T showed an abundance fitness of -0.218 ± 0.054.
For R52D, the abundance fitness was 0.075 ± 0.065.
Variant M34R has an abundance fitness of -0.161 ± 0.042.
Variant I32F has an abundance fitness of -0.185 ± 0.092.
A72K showed an abundance fitness of -0.175 ± 0.067.
R30C showed an abundance fitness of -0.275 ± 0.08.
C21H showed an abundance fitness of -0.714 ± 0.17.
Q61D gave an abundance fitness of -0.751 ± 0.22.
G13W gave an abundance fitness of -0.708 ± 0.097.
F75S gave an abundance fitness of 0.216 ± 0.049.
Variant L66K has an abundance fitness of -0.018 ± 0.05.
Variant R43W has an abundance fitness of -0.252 ± 0.049.
Variant C58F has an abundance fitness of -1 ± 0.24.
C7I gave an abundance fitness of -0.877 ± 0.22.
Work on N71P yielded an abundance fitness of 0.095 ± 0.047.
Variant S69F has an abundance fitness of -0.268 ± 0.075.
For M2W, the abundance fitness was -0.527 ± 0.098.
In the case of R52T, the abundance fitness is reported as -0.012 ± 0.047.
Variant R30K has an abundance fitness of -0.07 ± 0.081.
Variant Y38K has an abundance fitness of -0.776 ± 0.14.
In the case of C45S, the abundance fitness is reported as -0.743 ± 0.095.
With C7P the abundance fitness was -0.759 ± 0.14.
Q61C gave an abundance fitness of -0.615 ± 0.19.
With F75C the abundance fitness was 0.193 ± 0.064.
Variant C24D has an abundance fitness of -0.306 ± 0.11.
K35R gave an abundance fitness of -0.026 ± 0.036.
With C24L the abundance fitness was -0.753 ± 0.1.
With D9L the abundance fitness was -0.63 ± 0.072.
For H70F, the abundance fitness was 0.039 ± 0.15.
With F28W the abundance fitness was -0.203 ± 0.054.
In the case of R74M, the abundance fitness is reported as 0.004 ± 0.081.
R5T showed an abundance fitness of -0.018 ± 0.043.
Variant C63F has an abundance fitness of -0.403 ± 0.095.
For F60E, the abundance fitness was -1.03 ± 0.17.
Variant R43H has an abundance fitness of -0.07 ± 0.086.
A20R gave an abundance fitness of -0.707 ± 0.11.
Q56K showed an abundance fitness of -0.214 ± 0.063.
For I73G, the abundance fitness was 0.136 ± 0.033.
G23Q showed an abundance fitness of -0.009 ± 0.049.
For R33S, the abundance fitness was 0.168 ± 0.043.
In the case of S44E, the abundance fitness is reported as 0.139 ± 0.04.
H15A showed an abundance fitness of -0.116 ± 0.042.
For C7Q, the abundance fitness was -0.584 ± 0.11.
For V18H, the abundance fitness was -0.764 ± 0.27.
With I32Q the abundance fitness was -0.365 ± 0.093.
Work on K25G yielded an abundance fitness of 0.178 ± 0.031.
For C45L, the abundance fitness was -0.766 ± 0.1.
In the case of C55K, the abundance fitness is reported as -0.646 ± 0.18.
F60M showed an abundance fitness of -0.073 ± 0.055.
G67H gave an abundance fitness of -0.714 ± 0.23.
Variant Y38R has an abundance fitness of -0.846 ± 0.075.
In the case of Q56S, the abundance fitness is reported as 0.008 ± 0.039.
For K10A, the abundance fitness was -0.002 ± 0.041.
E39D gave an abundance fitness of -0.063 ± 0.055.
Variant H15G has an abundance fitness of -0.285 ± 0.039.
E37F gave an abundance fitness of -0.227 ± 0.092.
F28H gave an abundance fitness of -0.936 ± 0.33.
With F14D the abundance fitness was 0.014 ± 0.052.
In the case of R52K, the abundance fitness is reported as 0.207 ± 0.049.
R30T showed an abundance fitness of -0.07 ± 0.058.
Variant V18C has an abundance fitness of -0.145 ± 0.066.
Variant S12A has an abundance fitness of -0.119 ± 0.042.
Work on I32T yielded an abundance fitness of -0.107 ± 0.054.
In the case of R59K, the abundance fitness is reported as -0.199 ± 0.064.

Variants of: B2
Test: as above
Settings: Homo sapiens
For L1A, the abundance fitness was 0.158 ± 0.23.
Work on L1F yielded an abundance fitness of 0.014 ± 0.049.
L1G showed an abundance fitness of 0.043 ± 0.037.
Work on L1I yielded an abundance fitness of 0.149 ± 0.1.
L1M showed an abundance fitness of 0.076 ± 0.038.
Variant L1Q has an abundance fitness of -0.245 ± 0.16.
In the case of L1R, the abundance fitness is reported as -0.083 ± 0.34.
L1S showed an abundance fitness of -0.003 ± 0.037.
Variant L1T has an abundance fitness of 0.066 ± 0.06.
L1V gave an abundance fitness of 0.054 ± 0.047.
L1W showed an abundance fitness of -0.187 ± 0.057.
Work on K2A yielded an abundance fitness of -0.116 ± 0.056.
With K2D the abundance fitness was -0.004 ± 0.047.
With K2E the abundance fitness was -0.038 ± 0.05.
K2F gave an abundance fitness of -0.078 ± 0.083.
With K2G the abundance fitness was -0.12 ± 0.041.
K2H gave an abundance fitness of -0.374 ± 0.078.
In the case of K2I, the abundance fitness is reported as -0.241 ± 0.094.
K2L showed an abundance fitness of -0.196 ± 0.049.
K2M showed an abundance fitness of -0.09 ± 0.049.
With K2N the abundance fitness was -0.046 ± 0.048.
K2P showed an abundance fitness of -0.357 ± 0.057.
Work on K2Q yielded an abundance fitness of -0.107 ± 0.041.
Work on K2R yielded an abundance fitness of -0.153 ± 0.034.
For K2S, the abundance fitness was -0.049 ± 0.048.
K2T showed an abundance fitness of -0.367 ± 0.43.
Work on K2V yielded an abundance fitness of -0.023 ± 0.038.
K2W gave an abundance fitness of -0.401 ± 0.066.
K2Y showed an abundance fitness of -0.477 ± 0.08.
In the case of G3A, the abundance fitness is reported as -0.047 ± 0.039.
G3C showed an abundance fitness of -0.226 ± 0.062.
With G3E the abundance fitness was -0.2 ± 0.053.
For G3F, the abundance fitness was -0.247 ± 0.084.
In the case of G3H, the abundance fitness is reported as -0.058 ± 0.065.
G3I gave an abundance fitness of -0.246 ± 0.053.
Work on G3K yielded an abundance fitness of -0.146 ± 0.065.
Variant G3L has an abundance fitness of -0.205 ± 0.038.
For G3M, the abundance fitness was -0.111 ± 0.14.
Variant G3P has an abundance fitness of -0.189 ± 0.036.
In the case of G3Q, the abundance fitness is reported as -0.373 ± 0.067.
Work on G3R yielded an abundance fitness of -0.135 ± 0.034.
G3S showed an abundance fitness of -0.107 ± 0.048.
For G3T, the abundance fitness was -0.093 ± 0.045.
In the case of G3V, the abundance fitness is reported as -0.218 ± 0.034.
In the case of G3W, the abundance fitness is reported as -0.391 ± 0.051.
Work on G3Y yielded an abundance fitness of -0.205 ± 0.28.
